Data reported in paper doi:10.1101/783266.

Tests used:
Assay in all cases: BLI
[1] = molecular target: LRX1^ΔE-FLAG (Arabidopsis thaliana) (UniProt O65375)
[2] = molecular target: LRX4^ΔE-FLAG (Arabidopsis thaliana) (UniProt Q9LHF1)
[3] = molecular target: LRX5^ΔE-FLAG (Arabidopsis thaliana) (UniProt Q9SN46)

Measured: Kd

Chain of UniProt O65375 (O65375 27-744, stated change not applied): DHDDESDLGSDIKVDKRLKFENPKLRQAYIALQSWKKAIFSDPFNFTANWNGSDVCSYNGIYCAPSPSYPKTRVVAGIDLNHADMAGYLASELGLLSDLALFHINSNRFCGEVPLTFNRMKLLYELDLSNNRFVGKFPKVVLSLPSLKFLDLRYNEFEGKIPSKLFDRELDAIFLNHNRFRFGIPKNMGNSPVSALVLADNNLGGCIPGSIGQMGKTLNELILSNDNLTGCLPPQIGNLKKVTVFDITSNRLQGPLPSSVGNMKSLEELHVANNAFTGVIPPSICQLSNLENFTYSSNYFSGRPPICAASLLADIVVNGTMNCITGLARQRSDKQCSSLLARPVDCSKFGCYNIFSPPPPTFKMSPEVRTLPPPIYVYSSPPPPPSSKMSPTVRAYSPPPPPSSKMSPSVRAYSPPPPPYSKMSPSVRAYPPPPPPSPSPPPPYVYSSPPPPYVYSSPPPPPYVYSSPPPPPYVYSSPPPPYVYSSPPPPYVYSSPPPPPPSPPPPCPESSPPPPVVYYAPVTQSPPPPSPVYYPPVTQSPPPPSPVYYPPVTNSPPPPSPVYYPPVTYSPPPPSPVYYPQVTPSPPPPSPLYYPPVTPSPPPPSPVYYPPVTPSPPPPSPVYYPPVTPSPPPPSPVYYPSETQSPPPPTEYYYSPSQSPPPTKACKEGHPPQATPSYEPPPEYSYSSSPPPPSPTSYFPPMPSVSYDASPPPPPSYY
Chain of UniProt Q9LHF1 (Q9LHF1 26-494, stated change not applied): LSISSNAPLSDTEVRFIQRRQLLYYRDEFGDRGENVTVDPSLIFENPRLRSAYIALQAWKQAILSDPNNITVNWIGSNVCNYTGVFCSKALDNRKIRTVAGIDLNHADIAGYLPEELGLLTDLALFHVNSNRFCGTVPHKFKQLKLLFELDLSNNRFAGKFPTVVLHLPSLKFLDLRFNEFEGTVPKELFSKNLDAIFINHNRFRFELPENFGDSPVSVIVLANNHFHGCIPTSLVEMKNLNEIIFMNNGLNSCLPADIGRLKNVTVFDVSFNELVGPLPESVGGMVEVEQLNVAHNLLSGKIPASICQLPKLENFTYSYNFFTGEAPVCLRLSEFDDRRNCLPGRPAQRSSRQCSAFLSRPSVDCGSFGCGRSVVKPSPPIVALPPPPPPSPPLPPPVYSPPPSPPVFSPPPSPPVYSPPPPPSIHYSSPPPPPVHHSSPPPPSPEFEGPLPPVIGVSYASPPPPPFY
Chain of UniProt Q9SN46 (Q9SN46 32-857, stated change not applied): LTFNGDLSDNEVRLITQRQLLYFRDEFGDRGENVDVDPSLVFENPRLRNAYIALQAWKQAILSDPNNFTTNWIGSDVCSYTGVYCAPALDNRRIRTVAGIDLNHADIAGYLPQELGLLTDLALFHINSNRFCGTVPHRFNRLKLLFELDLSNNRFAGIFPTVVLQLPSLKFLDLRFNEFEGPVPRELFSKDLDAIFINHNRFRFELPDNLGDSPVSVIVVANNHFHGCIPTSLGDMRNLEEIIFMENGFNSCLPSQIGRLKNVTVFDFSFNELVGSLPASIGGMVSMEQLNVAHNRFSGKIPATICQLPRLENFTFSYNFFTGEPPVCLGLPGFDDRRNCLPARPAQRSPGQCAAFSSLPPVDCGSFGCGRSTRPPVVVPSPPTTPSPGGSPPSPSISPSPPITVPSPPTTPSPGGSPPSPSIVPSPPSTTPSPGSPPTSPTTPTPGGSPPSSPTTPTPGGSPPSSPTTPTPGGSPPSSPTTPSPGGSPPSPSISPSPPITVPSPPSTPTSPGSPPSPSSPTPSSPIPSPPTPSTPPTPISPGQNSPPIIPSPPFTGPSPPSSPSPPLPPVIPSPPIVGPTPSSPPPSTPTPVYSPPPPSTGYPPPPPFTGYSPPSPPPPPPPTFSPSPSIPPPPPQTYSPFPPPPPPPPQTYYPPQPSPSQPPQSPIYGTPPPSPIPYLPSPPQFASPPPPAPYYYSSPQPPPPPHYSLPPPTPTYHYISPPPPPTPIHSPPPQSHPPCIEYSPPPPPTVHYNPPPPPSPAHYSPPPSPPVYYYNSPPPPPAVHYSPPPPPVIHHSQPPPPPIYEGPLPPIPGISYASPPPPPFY

B1: RALF1, in vitro synthesized peptide (peptide)
peptide: ATTKYISYQSLKRNSVPCSRRGASYYNCQNGAQANPYSRGCSKIARCRS
5 nM: all assays above
